# Experimental data: US6361968 (US Dept. of Health and Human Services, dated 1997)
# T1: C/EBP bZIP domain (GCN4-C/EBP chimeric protein) (C/EBP: rat liver; GCN4: yeast)
# T1 construct: Made in E. coli; forms a homodimer; also called C/EBP-C/EBP; wild type C/EBP
# T1 chain: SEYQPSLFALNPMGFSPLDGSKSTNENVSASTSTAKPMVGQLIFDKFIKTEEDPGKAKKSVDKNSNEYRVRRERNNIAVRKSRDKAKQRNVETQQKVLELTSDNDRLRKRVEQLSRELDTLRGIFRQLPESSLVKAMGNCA
# T2: bZIP VBP protein (chicken, UniProt Q92172 235-319, limits assumed)
# T2 sequence (looked up): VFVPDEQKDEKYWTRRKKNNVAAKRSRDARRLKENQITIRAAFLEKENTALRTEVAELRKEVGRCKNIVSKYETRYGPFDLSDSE
# T3: GBF-C/EBP chimeric protein (GBF: Arabidopsis thaliana; C/EBP: rat …)
# T3 chain: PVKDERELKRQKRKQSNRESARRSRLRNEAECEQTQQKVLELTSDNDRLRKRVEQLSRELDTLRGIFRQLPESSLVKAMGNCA
# T4: VBP-C/EBP chimeric protein (VBP: chicken; C/EBP: rat liver)
# T4 chain: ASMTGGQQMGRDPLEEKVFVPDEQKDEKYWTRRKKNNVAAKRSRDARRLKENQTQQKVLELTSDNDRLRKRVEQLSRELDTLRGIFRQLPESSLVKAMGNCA
# B1: 4heptadFos (c-Fos with the basic region replaced by four acidic heptad repeats) (designed binder)
# chain: MASMTGGQQMGRDPDLEQRAEELARENEELEKEAEELEQENAELEAETDQLEDEKSALQTEIANLLKEKEKLEFILAAHRPACKIP
# notes: how the two entries divide the protein is not explained; also called aZIP 4heptadFos; aFos
# B2: 3heptad-F (designed binder)
# chain: ASMTGGQQMGRDPGGGLARENEELEKEAEELEQENAELEQEVLELESRNDRLRKEVEQLERELDTLRGIFRQLPESSLVKAMGNCA
# notes: also called aZIP 3heptadF (CEBP specific)
# B3: c-Myc bHLH protein (other)
# chain: NDKRRTHNVLERQRRNELKRSFFALRDQIPELENNEKAPKVVILKKATAYILSIQADEHKLTSEKDLLRKRREQLKHKLEQLRNSGA
# Legend:
# c-Jun (unmodified) [1] = biological target: T5, c-Jun (unmodified) (UniProt P05412 241-331, limits assumed); test: from thermal melts of FIG. 4, Kd at 37 C
# c-Jun (unmodified) [2] = biological target: T5, c-Jun (unmodified); test: thermal melt of the mixture (FIG. 4)
# [3] = biological target: T1, C/EBP bZIP domain (GCN4-C/EBP chimeric …); test: thermal melt of the mixture equals the sum of the two homodimer curves (FIG. 5A)
# [4] = biological target: the molecule itself; test: CD thermal melt, homodimer, 150 mM KCl
# Description: (§1) CD analyses were performed as described in Materials and Methods of D. Krylov et al., 1994, *EMBO J.,* 13:2849–2861. T_m values were calculated as described in D, Krylov et al., 1994, Ibid, converted to K_{d(25)} and $\Delta G(25)$ using a $\Delta C_p$ of –0.96 kcal/mol° C.^-1 calculated from a T_m versus $\Delta H$ plot for all of the proteins as described herein. All thermal melts were reversible.
# (§2) Table 1 presents the melting temperature (T_m,° C.), $\Delta G$ and k_d at 25° C. for CD thermal melts of a variety of proteins either as homodimers or an equimolar mixture of two proteins. […] The (L) denotes 'low' salt conditions (50 mM KCl, 25 mM Tris pH 8.0, 0.5 mM EDTA, 1 mM DTT) and the (H) denotes regular salt conditions (12.5 mM potassium phosphate, pH 7.4, 150 mM KCl, 0.25 mM EDTA, and 0.5 mM DTT). The latter conditions were used in Table 2. "0heptad-F" represents the F zipper with the basic region deleted. The RMS error in $\Delta G$ is 0.2 kcal/mol and 0.5 kcal/mol for homo- and heterodimers respectively.
# [5] = biological target: the molecule itself; test: CD thermal melt, homodimer, 150 mM KCl, Kd at 25 C
# Description: as §1, §2
# bZIP VBP protein = biological target: T2, bZIP VBP protein; test: thermal melt of the mixture equals the sum of the two homodimer curves (FIG. 5B)
# [6] = biological target: T3, GBF-C/EBP chimeric protein; test: CD thermal melt, equimolar mixture, 150 mM KCl
# Description: as §2
# (§3) The two chimeras were mixed with the four different length acidic extensions appended to the F zipper and their stability was determined from CD thermal melts.
# [7] = biological target: T4, VBP-C/EBP chimeric protein; test: CD thermal melt, equimolar mixture, 150 mM KCl
# Description: as §2, §3
# [8] = biological target: T1, C/EBP bZIP domain (GCN4-C/EBP chimeric …); test: CD thermal melt, equimolar mixture, 150 mM KCl
# Description: as §2, §3
# [9] = biological target: T3, GBF-C/EBP chimeric protein; test: CD thermal melt, equimolar mixture, 150 mM KCl, Kd at 25 C
# Description: as §2, §3
# [10] = biological target: T4, VBP-C/EBP chimeric protein; test: as above
# Description: as §2, §3
# [11] = biological target: T1, C/EBP bZIP domain (GCN4-C/EBP chimeric …); test: as above
# Description: as §2, §3
# [12] = biological target: T6, 0heptadMax (dimerization domain of Max without an acidic extension) (UniProt P61244 44-113, limits assumed); test: heterodimer with c-Myc, dimerization study of FIG. 9
# T6 construct: domain: dimerization domain; also called OheptadMax
# T6 sequence (P61244 other isoform, or with tags, fused parts or gaps limits assumed): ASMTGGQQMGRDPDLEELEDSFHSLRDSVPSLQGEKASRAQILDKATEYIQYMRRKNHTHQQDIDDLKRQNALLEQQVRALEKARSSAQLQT
# T5 sequence (P05412 241-331 limits assumed): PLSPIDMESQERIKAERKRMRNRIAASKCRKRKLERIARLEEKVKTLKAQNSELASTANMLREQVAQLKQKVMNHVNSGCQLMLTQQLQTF
binder,measurement,setting,value
B1,Kd,c-Jun (unmodified) [1],6 nM
same,Tm,c-Jun (unmodified) [2],61 °C
same,binding result,[3],no binding
B2,deltaG at 25 C,[4],-7.9 kcal/mol
same,Kd,[5],2000 nM
same,binding result,bZIP VBP protein,no binding
same,Tm,[6],64 °C
same,deltaG at 25 C,[6],-14.2 kcal/mol
same,Tm,[7],64.2 °C
same,deltaG at 25 C,[7],-14.7 kcal/mol
same,Tm,[8],63.8 °C
same,deltaG at 25 C,[8],-14.3 kcal/mol
same,Kd,[9],0.04 nM
same,Kd,[10],0.02 nM
same,Kd,[11],0.04 nM
B3,Kd,[12],0.6 nM
